The source of these data is US20140120095A1 (Boehringer Ingelheim, published 2014).

The target of assay [1] is T1, recombinant human DLL4 (C-terminally His-tagged extracellular domain, R&D Systems) (human, UniProt Q9NR61 25-522, biotinylated in the competition ELISA).
T1 construct: also called rhDLL4; hDLL4
Kind of assay: SPR (Biacore); summary table. On the technique in general: In SPR one partner is held on a chip, and binding of the other changes the refractive index at the surface.

Assay [2] addresses T2, recombinant mouse DLL4 (C-terminally His-tagged extracellular domain, R&D Systems) (mouse, UniProt Q9JI71 27-532).
T2 construct: extracellular domain; also called rmDLL4; mDLL4
Nature of the assay: SPR (Biacore); summary table.

The target of assay [3] is T1, recombinant human DLL4 (C-terminally …). Nature of the assay: competition ELISA hDLL4/hNotch1-Fc; summary table. In general terms: In an ELISA, binding on a coated surface is turned into a signal by an enzyme label.
The target of assay [4] is T3, human DLL4 expressed on cells (CHO-hDLL4; HEK293-hDLL4) (human, UniProt Q9NR61 27-685).
T3 construct: full length human DLL4 overexpressed on CHO cells (FMAT, FACS) or HEK293 cells (reporter assay)
Nature of the assay: competition FMAT, labelled hNotch1-Fc on CHO-hDLL4 cells.

Assay [5] addresses T3, human DLL4 expressed on cells …. Nature of the assay: FACS on CHO-hDLL4 cells.
In assay [6] the target is T4, mouse DLL4 expressed on CHO cells (mouse, UniProt Q9JI71 27-686).
T4 construct: whole, on cells; also called mDLL4; CHO-mDLL4
T4 sequence (Q9JI71 27-686): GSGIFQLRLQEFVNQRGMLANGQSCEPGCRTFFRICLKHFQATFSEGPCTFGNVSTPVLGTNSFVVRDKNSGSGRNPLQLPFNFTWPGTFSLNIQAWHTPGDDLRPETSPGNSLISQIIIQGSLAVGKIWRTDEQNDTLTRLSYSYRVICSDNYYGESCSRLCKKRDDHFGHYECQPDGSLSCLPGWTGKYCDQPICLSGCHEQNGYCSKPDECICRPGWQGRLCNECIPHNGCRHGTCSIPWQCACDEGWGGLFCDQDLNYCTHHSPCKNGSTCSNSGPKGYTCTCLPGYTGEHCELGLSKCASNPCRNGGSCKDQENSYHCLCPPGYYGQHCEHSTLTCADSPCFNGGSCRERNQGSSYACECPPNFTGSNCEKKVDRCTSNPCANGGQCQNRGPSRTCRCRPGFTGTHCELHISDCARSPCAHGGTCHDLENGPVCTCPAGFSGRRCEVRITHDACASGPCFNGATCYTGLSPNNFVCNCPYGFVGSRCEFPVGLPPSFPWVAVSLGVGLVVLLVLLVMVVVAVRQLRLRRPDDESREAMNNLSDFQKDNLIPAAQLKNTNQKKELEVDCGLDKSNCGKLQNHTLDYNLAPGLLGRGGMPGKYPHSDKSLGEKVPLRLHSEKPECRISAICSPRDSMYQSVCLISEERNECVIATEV
Nature of the assay: FACS on CHO-mDLL4 cells.

In assay [7] the target is T2, recombinant mouse DLL4 (C-terminally …). Nature of the assay: SPR (Biacore), rmDLL4.
Assay [8] has as its target T1, recombinant human DLL4 (C-terminally …). Kind of assay: binding ELISA on coated recombinant human DLL4 (Example 5.8, Example 7), OD 450 nm.
For assay [9], the target named is T5, cynomolgus DLL4 expressed on CHO cells (cynomolgus, UniProt Q9NR61 27-685 (human entry)).
T5 construct: also called cDLL4; CHO-cDLL4
T5 chain: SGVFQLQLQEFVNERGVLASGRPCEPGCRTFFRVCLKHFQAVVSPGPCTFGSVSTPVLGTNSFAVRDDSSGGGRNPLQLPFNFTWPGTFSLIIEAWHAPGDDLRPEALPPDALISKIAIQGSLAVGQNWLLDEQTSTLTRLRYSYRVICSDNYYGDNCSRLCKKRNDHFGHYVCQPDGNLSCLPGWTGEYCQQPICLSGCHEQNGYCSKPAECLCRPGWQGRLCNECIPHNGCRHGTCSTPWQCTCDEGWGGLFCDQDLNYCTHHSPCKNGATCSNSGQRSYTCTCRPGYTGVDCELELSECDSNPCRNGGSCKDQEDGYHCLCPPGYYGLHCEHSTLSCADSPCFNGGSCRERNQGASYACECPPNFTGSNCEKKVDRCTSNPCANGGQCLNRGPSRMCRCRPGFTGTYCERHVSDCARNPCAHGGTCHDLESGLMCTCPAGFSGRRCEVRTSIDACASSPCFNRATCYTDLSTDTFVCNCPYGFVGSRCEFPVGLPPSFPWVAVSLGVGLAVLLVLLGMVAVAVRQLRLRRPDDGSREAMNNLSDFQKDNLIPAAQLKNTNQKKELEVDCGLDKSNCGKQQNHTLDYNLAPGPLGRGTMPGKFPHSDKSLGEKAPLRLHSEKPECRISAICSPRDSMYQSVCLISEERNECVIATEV
Nature of the assay: FACS; summary table, column taken as cDLL4. In general terms: A flow cytometer gives signals particle by particle.

Assay [10] addresses T4, mouse DLL4 expressed on CHO cells. Kind of assay: FACS; summary table, column taken as mDLL4.
For assay [11], the target named is T3, human DLL4 expressed on cells …. Kind of assay: cell-based or functional assay.
In assay [12] the target is T4, mouse DLL4 expressed on CHO cells. Kind of assay: competition FMAT CHO-mDLL4; summary table.
Assay [13] has as its target T5, cynomolgus DLL4 expressed on CHO cells. Kind of assay: FACS on CHO-cDLL4 cells.
Assay [14] has as its target T3, human DLL4 expressed on cells …. Nature of the assay: competition FMAT CHO-hDLL4; summary table.
Assay [15] concerns the target T1, recombinant human DLL4 (C-terminally …). Nature of the assay: SPR (Biacore), rhDLL4. In short, it runs like this:
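SPR with DLL4 on the chip; VHH or Fab injected at 10-300 nM for 2 minutes, 20 min dissociation, in HBS-N pH7.4, regenerating with glycine pH1.5 and HCl. KD derived from association and dissociation rate constants by 1:1 Langmuir fit where the curves allowed.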

For assay [16], the target named is T4, mouse DLL4 expressed on CHO cells. Nature of the assay: competition FMAT, labelled hNotch1-Fc on CHO-mDLL4 cells.
For assay [17], the target named is T1, recombinant human DLL4 (C-terminally …). Kind of assay: competition ELISA, biotinylated hDLL4 to coated hNotch1-Fc.
Assay [18] addresses T3, human DLL4 expressed on cells …. Nature of the assay: FACS; summary table, column taken as hDLL4.

T2 sequence (Q9JI71 27-532): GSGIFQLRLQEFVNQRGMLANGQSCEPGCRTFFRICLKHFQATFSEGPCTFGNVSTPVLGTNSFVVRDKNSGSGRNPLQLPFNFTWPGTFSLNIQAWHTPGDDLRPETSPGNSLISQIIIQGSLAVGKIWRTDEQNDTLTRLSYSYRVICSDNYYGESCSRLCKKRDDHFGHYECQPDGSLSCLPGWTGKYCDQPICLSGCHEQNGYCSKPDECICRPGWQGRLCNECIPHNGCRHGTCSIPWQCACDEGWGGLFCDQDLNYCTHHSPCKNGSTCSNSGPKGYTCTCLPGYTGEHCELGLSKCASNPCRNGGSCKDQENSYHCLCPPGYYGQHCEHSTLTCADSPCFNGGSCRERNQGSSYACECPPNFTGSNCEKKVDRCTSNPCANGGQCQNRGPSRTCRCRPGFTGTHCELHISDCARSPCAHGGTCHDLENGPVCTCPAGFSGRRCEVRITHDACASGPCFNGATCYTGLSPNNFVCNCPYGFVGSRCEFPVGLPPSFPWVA

B1: DLLBII133A09 (VHH, not shown: small tags and cut ends)
VHH: EVQLVESGGGLVQPGGSLRLSCAASGFTFGSYDMSWVRRSPGKGPEWVSAINSGGGSTYYADYVKGRFTISRDNAKNTLYLQMNSLKPEDTAVYYCAADRYIWARQGEYWGAYAYDYWGQGTQVTVSS
For the molecule B1, the Kd in assay [1] was 2.1 nM; in assay [2] it was 7.8 nM; in assay [7] it was 7.8 nM; in assay [15], 2.1 nM. The IC50 in [3] is 1.5 nM; in [4] it was 6.6 nM; in [12] it was 18.6 nM; in assay [14], 6.6 nM; in assay [16], 18.6 nM; in [17] it was 1.5 nM. For the same molecule, the EC50 in [5] was 7.2 nM; in [6] it was 1.7 nM; in assay [9], 2.3 nM; in assay [10], 1.7 nM; in assay [13], 2.3 nM; in [18], 7.2 nM. The dissociation rate constant (koff) is 0.0027 s⁻¹ in [7] and 0.0009 s⁻¹ in [15]. For the same molecule, the kon in [7] was 350000 M⁻¹ s⁻¹; in assay [15], 440000 M⁻¹ s⁻¹. The “EC50 (read off the curve)” value in [8] was around 0.6 nM. Moreover, in [11], the “IC50, DLL4-mediated reporter assay” value stood at 87 nM.

B2: DLLBII136C07 (VHH, not shown: small tags and cut ends)
VHH: EVQLVESGGGLVQPGGSLRLSCAASGFTFGSYDMSWVRRSPGKGPEWVSSINSGGGSTYYADYVKGRFTISRDNAKNTLYLQMNSLKPEDTAVYYCAADRYIWARQGEYWGAYEYDYWGQGTQVTVSS
Regarding B2, the Kd in [1] turned out to be 0.6 nM; in assay [2] it was 2.6 nM; in [7], 2.6 nM; in assay [15], 0.6 nM. For the same molecule, the IC50 in assay [3] turned out to be 1.4 nM; in [4] it was 8 nM; in assay [12], 31.2 nM; in assay [14] it was 8 nM; in assay [16], 31.2 nM; in assay [17], 1.4 nM. The EC50 in assay [5] was 10.9 nM; in assay [6], 8.3 nM; in [9], 3.5 nM; in assay [10], 8.3 nM; in assay [13], 3.5 nM; in [18], 10.9 nM. Moreover, the results for the koff in assay [7] and in assay [15] were 0.0013 s⁻¹ and 0.00039 s⁻¹, respectively. In addition, the values for the kon in [7] and in assay [15] were 500000 M⁻¹ s⁻¹ and 620000 M⁻¹ s⁻¹, respectively. For the same molecule, the “EC50 (read off the curve)” value in [8] was around 0.6 nM. In addition, the “IC50, DLL4-mediated reporter assay” value in assay [11] turned out to be 226 nM.

B3: DLLBII133G05 (VHH, not shown: small tags and cut ends)
VHH: EVQLVESGGGLVQPGGSLRLSCAASGFTFGSYDMSWVRRSPGKGPEWVSAINSGGGSTYYTDYVKGRFTISRDNAKNTLYLQMNSLKPEDTAVYYCAADRYIWARQGEYWGAYAYDYWGQGTQVTVSS
In the case of B3, the Kd in assay [1] was found to be 0.8 nM; in assay [2], 3.4 nM; in [7] it was 3.4 nM; in [15], 0.8 nM. Besides, the IC50 in assay [3] was 2 nM; in assay [4], 5.9 nM; in assay [12] it was 12 nM; in assay [14] it was 5.9 nM; in assay [16] it was 12 nM; in assay [17], 2 nM. Also, the EC50 in assay [5] amounted to 8.5 nM; in assay [6], 2.8 nM; in assay [9], 2.7 nM; in assay [10], 2.8 nM; in [13] it was 2.7 nM; in assay [18] it was 8.5 nM. In addition, the values for the koff in assay [7] and in assay [15] were 0.0016 s⁻¹ and 0.00047 s⁻¹, respectively. The kon amounted to 470000 M⁻¹ s⁻¹ in assay [7] and 590000 M⁻¹ s⁻¹ in assay [15]. For the same molecule, the concentration giving a half-maximal response (EC50 (read off the curve)) in [8] is around 0.4 nM. Moreover, the “IC50, DLL4-mediated reporter assay” value in [11] was 104 nM.

As usually defined, the Kd is the concentration at which binding is half-saturated. A word on the IC50: it is the concentration at which inhibition is half-maximal. As a reminder, the EC50 is the concentration at which the effect is half-maximal. A high value points to weaker potency. By koff is commonly meant the first-order rate constant of dissociation. In general, kon refers to the rate constant with which the complex forms. For orientation: EC50 (read off the curve) means the midpoint of the concentration-response curve.
